Results as given in patent US20140087995A1 (published 2014).
Numbered stars: 1 amine (or outer) side, 2 acyl side, 3 side chain; on linkers, the order of the positions; unused ones are H or OH. Bridge positions count the residues as written; N and C are the ends. Side chains are listed from the residue outwards. Ends that are not written are not given here. * marks the point of attachment. C20 diacid = O=C(O)CCCCCCCCCCCCCCCCCCC(=O)*; γGlu = O=C(O)[C@H](CCC(=O)[*:2])N[*:1]

T1: rat calcitonin receptor (rat, UniProt P32214 25-516)
T1 construct: whole, on cells; Used as membranes prepared from the transfected cells (Assay VIII); also called rCTR; rat calcitonin (a) receptor
T1 sequence (looked up): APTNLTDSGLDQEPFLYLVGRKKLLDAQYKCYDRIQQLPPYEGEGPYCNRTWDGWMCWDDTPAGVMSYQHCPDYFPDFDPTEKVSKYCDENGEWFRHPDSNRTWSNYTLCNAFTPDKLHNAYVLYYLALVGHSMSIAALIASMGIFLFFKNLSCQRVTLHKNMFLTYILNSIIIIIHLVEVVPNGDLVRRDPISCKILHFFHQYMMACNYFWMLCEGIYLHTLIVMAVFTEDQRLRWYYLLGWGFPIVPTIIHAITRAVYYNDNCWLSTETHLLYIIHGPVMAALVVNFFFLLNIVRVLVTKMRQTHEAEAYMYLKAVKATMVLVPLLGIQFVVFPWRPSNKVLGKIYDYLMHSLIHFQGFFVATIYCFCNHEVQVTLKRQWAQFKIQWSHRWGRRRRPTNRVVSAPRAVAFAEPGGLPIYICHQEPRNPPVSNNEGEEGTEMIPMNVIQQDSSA

T2: rat amylin receptor (rat calcitonin receptor + rat RAMP 3) (rat, UniProt P32214 25-516; Q9JJ73 23-147)
T2 construct: whole, on cells; Used as membranes prepared from the transfected cells (Assay VI); also called rAmylin-R; rat amylin 3(a) receptor
T2 sequence (looked up) 1: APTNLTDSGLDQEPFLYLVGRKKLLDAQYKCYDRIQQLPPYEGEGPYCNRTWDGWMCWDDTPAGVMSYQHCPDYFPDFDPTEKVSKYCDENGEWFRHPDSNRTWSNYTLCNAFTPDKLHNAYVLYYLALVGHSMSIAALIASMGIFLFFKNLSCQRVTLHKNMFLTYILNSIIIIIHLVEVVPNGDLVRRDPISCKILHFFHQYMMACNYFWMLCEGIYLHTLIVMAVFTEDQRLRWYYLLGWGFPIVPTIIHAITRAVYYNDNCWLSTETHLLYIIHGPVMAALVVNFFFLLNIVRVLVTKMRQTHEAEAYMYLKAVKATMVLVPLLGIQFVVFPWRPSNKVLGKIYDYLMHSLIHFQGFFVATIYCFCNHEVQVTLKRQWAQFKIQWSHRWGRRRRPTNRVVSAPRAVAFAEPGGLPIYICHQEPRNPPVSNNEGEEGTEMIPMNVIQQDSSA
T2 sequence (looked up) 2: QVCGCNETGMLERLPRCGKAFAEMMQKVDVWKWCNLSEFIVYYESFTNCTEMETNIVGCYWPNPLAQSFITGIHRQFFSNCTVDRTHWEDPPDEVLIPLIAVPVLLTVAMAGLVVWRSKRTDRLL

T3: human calcitonin receptor (human, UniProt P30988 25-474)
T3 construct: whole, on cells; Used as membranes prepared from the transfected cells (Assay VII); also called hCTR; hCT
T3 sequence (looked up): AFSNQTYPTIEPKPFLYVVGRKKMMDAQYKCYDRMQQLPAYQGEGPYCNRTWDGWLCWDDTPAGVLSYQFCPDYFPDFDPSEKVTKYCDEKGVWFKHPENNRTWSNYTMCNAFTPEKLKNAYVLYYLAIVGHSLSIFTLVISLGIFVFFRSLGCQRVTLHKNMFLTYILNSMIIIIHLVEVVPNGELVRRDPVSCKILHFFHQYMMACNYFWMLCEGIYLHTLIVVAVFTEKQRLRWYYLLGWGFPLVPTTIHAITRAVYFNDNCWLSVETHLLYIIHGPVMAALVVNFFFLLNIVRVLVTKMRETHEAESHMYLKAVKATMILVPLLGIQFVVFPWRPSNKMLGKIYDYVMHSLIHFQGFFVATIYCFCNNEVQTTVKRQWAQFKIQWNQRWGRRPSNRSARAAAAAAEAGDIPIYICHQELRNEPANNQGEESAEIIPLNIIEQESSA


How the values were obtained:
[1] = target: T1, rat calcitonin receptor; assay: SPA competition binding, displacement of 125I-calcitonin from membranes of BHK tk'ts 13 cells transfected with rat calcitonin receptor (Assay VIII)
[2] = target: T2, rat amylin receptor (rat calcitonin …); assay: SPA competition binding, displacement of 125I-rat amylin from membranes of BHK tk'ts 13 cells transfected with rat calcitonin receptor + rat RAMP 3 (Assay VI)
[3] = target: T3, human calcitonin receptor; assay: ratio of IC50 on human calcitonin receptor (Assay VII) to IC50 on human amylin receptor (Assay V)
Description: The resulting pellet was resuspended, homogenized and centrifuged (20.000 rpm, 15 min) in a buffer containing 20 mM Na-HEPES and 0.1 mM EDTA (pH 7.4, buffer 2). The resulting pellet was resuspended in buffer 2 and protein concentration was measured (BCA protein Assay, Pierce). The homogenate was kept cold during the whole procedure. The membranes were kept at −80° C. until use. The assay was performed in a 384 well Optiplate (PerkinElmer) in a total volume of 40 ul. Membranes were mixed with SPA beads. Final concentration of membranes 35 ng/μL final and SPA beads was 0.05 mg/well. Test-compounds were dissolved in DMSO and further diluted in assay buffer (50 mM Hepes, pH 7.4, 1 mM CaCl2, 5 mM MgCl₂, 0.1% OA and 0.02% Tween20). […] The final mixture was incubated with shaking at 400 rpm for 120 min at 25° C. prior to centrifugation (1500 rpm, 10 min). Samples were analyzed on TopCounter™ (Packard). The IC₅₀ was calculated using (one site binding competition analysis) GraphPad Prism5 as a measure of receptor affinity.
Membranes were prepared in the following way; the cells were rinsed with PBS and incubated with Versene for approximately 5 min before harvesting. The cells were flushed with PBS and the cell-suspension was centrifuged for 5 min at 1000 rpm. Cells were homogenized (Ultrathurrax) in a buffer containing 20 mM Na-HEPES and 10 mM EDTA (pH 7.4) and centrifuged at 20.000 rpm for 15 min. The resulting pellet was resuspended, homogenized and centrifuged (20.000 rpm, 15 min) in a buffer containing 20 mM Na-HEPES and 0.1 mM EDTA (pH 7.4, buffer 2). The resulting pellet was resuspended in buffer 2 and protein concentration was measured (BCA protein Assay, Pierce). The homogenate was kept cold during the whole procedure. The membranes were kept at −80° C. until use. Assay was performed in a 384 well Optiplate (PerkinElmer) in a total volume of 40 ul. Membranes were mixed with SPA beads.

[4] = target: T1, rat calcitonin receptor; assay: ratio of IC50 on rat calcitonin receptor (Assay VIII) to IC50 on rat amylin receptor (Assay VI)

IC50 [1] [nM] | IC50 [2] [nM] | Ratio hCT/hAmylin binding [3] | Ratio rCT/rAmylin binding [4] | Binder
86.1 | 1.06 | 28.5 | 81.1 | K([γGlu-C20 diacid])CNTATCATQRLAEFLRHSSPNFGAIPSSTNVGRETY-NH2 (disulfide 2-7; N-terminus assumed; SMILES CC[C@H](C)[C@H](NC(=O)[C@H](C)NC(=O)CNC(=O)[C@H](Cc1ccccc1)NC(=O)[C@H](CC(N)=O)NC(=O)[C@@H]1CCCN1C(=O)[C@H](CO)NC(=O)[C@H](CO)NC(=O)[C@H](Cc1c[nH]cn1)NC(=O)[C@H](CCCNC(=N)N)NC(=O)[C@H](CC(C)C)NC(=O)[C@H](Cc1ccccc1)NC(=O)[C@H](CCC(=O)O)NC(=O)[C@H](C)NC(=O)[C@H](CC(C)C)NC(=O)[C@H](CCCNC(=N)N)NC(=O)[C@H](CCC(N)=O)NC(=O)[C@@H](NC(=O)[C@H](C)NC(=O)[C@@H]1CSSC[C@H](NC(=O)[C@@H](N)CCCCNC(=O)CC[C@H](NC(=O)CCCCCCCCCCCCCCCCCCC(=O)O)C(=O)O)C(=O)N[C@@H](CC(N)=O)C(=O)N[C@@H]([C@@H](C)O)C(=O)N[C@@H](C)C(=O)N[C@@H]([C@@H](C)O)C(=O)N1)[C@@H](C)O)C(=O)N1CCC[C@H]1C(=O)N[C@@H](CO)C(=O)N[C@@H](CO)C(=O)N[C@H](C(=O)N[C@@H](CC(N)=O)C(=O)N[C@H](C(=O)NCC(=O)N[C@@H](CCCNC(=N)N)C(=O)N[C@@H](CCC(=O)O)C(=O)N[C@H](C(=O)N[C@@H](Cc1ccc(O)cc1)C(N)=O)[C@@H](C)O)C(C)C)[C@@H](C)O, not restated for each compound)
26.3 | 1.16 | 26.4 | 22.7 | K([γGlu-C20 diacid])CNTATCATQRLAEFLRHSSPNFGAIPSSTNVGSHTY-NH2 (disulfide 2-7; N-terminus assumed; SMILES CC[C@H](C)[C@H](NC(=O)[C@H](C)NC(=O)CNC(=O)[C@H](Cc1ccccc1)NC(=O)[C@H](CC(N)=O)NC(=O)[C@@H]1CCCN1C(=O)[C@H](CO)NC(=O)[C@H](CO)NC(=O)[C@H](Cc1c[nH]cn1)NC(=O)[C@H](CCCNC(=N)N)NC(=O)[C@H](CC(C)C)NC(=O)[C@H](Cc1ccccc1)NC(=O)[C@H](CCC(=O)O)NC(=O)[C@H](C)NC(=O)[C@H](CC(C)C)NC(=O)[C@H](CCCNC(=N)N)NC(=O)[C@H](CCC(N)=O)NC(=O)[C@@H](NC(=O)[C@H](C)NC(=O)[C@@H]1CSSC[C@H](NC(=O)[C@@H](N)CCCCNC(=O)CC[C@H](NC(=O)CCCCCCCCCCCCCCCCCCC(=O)O)C(=O)O)C(=O)N[C@@H](CC(N)=O)C(=O)N[C@@H]([C@@H](C)O)C(=O)N[C@@H](C)C(=O)N[C@@H]([C@@H](C)O)C(=O)N1)[C@@H](C)O)C(=O)N1CCC[C@H]1C(=O)N[C@@H](CO)C(=O)N[C@@H](CO)C(=O)N[C@H](C(=O)N[C@@H](CC(N)=O)C(=O)N[C@H](C(=O)NCC(=O)N[C@@H](CO)C(=O)N[C@@H](Cc1c[nH]cn1)C(=O)N[C@H](C(=O)N[C@@H](Cc1ccc(O)cc1)C(N)=O)[C@@H](C)O)C(C)C)[C@@H](C)O, not restated for each compound)
5.43 | 0.104 | 21.2 | 52.2 | K([γGlu-C20 diacid])CNTATCATQRLAEFLRHSSPNFGAIPSSTNVGPHTY-NH2 (disulfide 2-7, not restated for each compound)
